Tests used:
[1] = target: T1, NKG2D on the human NK cell line NKL (human, UniProt P26718 1-216); assay: cell-based or functional assay
T1 sequence (looked up): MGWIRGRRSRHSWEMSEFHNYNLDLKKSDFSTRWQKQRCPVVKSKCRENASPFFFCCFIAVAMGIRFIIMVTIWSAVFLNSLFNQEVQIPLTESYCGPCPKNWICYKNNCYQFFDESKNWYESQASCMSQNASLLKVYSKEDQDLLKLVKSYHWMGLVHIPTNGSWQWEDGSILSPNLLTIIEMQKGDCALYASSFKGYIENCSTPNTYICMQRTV

[2] = target: T2, biotinylated human NKG2D (human, UniProt P26718 78-216, limits assumed, biotinylated (site not stated)); assay: biolayer interferometry (Octet), Kd = kOFF/kON
T2 construct: also called recombinant biotinylated NKG2D
T2 sequence (looked up): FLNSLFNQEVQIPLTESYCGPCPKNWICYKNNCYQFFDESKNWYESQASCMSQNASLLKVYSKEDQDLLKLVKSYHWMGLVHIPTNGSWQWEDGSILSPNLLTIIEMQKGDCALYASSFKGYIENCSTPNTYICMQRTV

[3] = target: T2, biotinylated human NKG2D; assay: biolayer interferometry (Octet), surface-coated biotinylated human NKG2D, titration 1-100 nM
Experimental: (§1) In order to characterize the NKG2D binding affinities, both the on-rates and off-rates for the three α1-α2 variant NKG2DLs binding to surface-coated biotinylated human NKG2D were measured using biolayer interferometry (Octet). Binding titrations were performed for each protein using a titration range of 1-100 nM, and the kinetic data were fitted to obtain on-rates, off-rates, and equilibrium binding constants.

[4] = target: T2, biotinylated human NKG2D; assay: biolayer interferometry (Octet), biotinylated human NKG2D; Table 5 compared with Table 3
Experimental: as §1

[5] = target: T2, biotinylated human NKG2D; assay: biolayer interferometry (Octet), biotinylated human NKG2D; the reference is not named
Experimental: as §1

[6] = target: T3, human NKG2D-Fc (human, UniProt P26718 78-216, limits assumed); assay: phage ELISA: ULBP2 variant displayed on phage titrated against NKG2D
T3 construct: not shown: Fc part
T3 sequence (looked up): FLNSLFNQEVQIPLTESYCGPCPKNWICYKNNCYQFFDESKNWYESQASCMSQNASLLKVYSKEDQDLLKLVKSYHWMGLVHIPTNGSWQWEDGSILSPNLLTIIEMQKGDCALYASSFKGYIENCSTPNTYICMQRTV

[7] = target: T3, human NKG2D-Fc; assay: phage ELISA: ULBP3 variant displayed on phage titrated against NKG2D

B1: α1-α2 variant 16 (designed binder)
chain: EPHSLRYNLTVLSWDGSVQSGFLTEVHLDGQPFLRCDRQKCRAKPQGQWAEDVLGNKTWDRETRDLTGWGKDLRMTLAHIKDQKEGLHSLQEIRVCEIHEDNSTRSSQHFYYDGELFLSQNLETLEWTMPQSSRAQTLAMNVRNFLKEDAMETDTHYHAMRADCLQELRRYLKSGVVLRRTVPPMVQVTRSEASGGSGDRVTITCRASQDVSTAVAWYQQKPGKAPKLLIYSASFLYSGVPSRFSGSGSGTDFTLTISSLQPEDFATYYCQQSYTTPPTFGQGTKVEIKGGSSRSSSSGGGGSGGGGEVQLVESGGGLVQPGGSLRLSCAASGFTFTSTGISWVRQAPGKGLEWVGRIYPTNGSTNYADSVKGRFTISADTSKNTAYLQMNSLRAEDTAVYYCARTYGIYDLYVDYTEYVMDYWGQGTLVTVSSGGSSRSSSSGGGGSGGGGDIQMTQSPSSLSASGGSGQITVTCRASGFYPWNITLSWRQDGVSLSHDTQQWGDVLPDGQGTYQTWVATRISQGEEQRFTCYMEHSGQHSTHPVPSGKGSHHHHHH
B1 was tested, and the “killing of FGFR3-expressing P815 target cells by NKL cells (calcein-release assay), fold over WT at 0.78 nM” value [1] was roughly 15 fold.

B2: α1-α2 variant 17 (designed binder)
chain: EPHSLRYNLTVLSWDGSVQSGFLTEVHLDGQPFLRCDRQKCRAKPQGQWAEDVLGNKTWDRETRDLTLWGKDLRMTLAHIKDQKEGLHSLQEIRVCEIHEDNSTRSSQHFYYDGELFLSQNLETLEWTMPQSSRAQTLAMNVRNFLKEDAMETDTHYHAMRADCLQELRRYLKSGVVLRRTVPPMVQVTRSEASGGSGDRVTITCRASQDVSTAVAWYQQKPGKAPKLLIYSASFLYSGVPSRFSGSGSGTDFTLTISSLQPEDFATYYCQQSYTTPPTFGQGTKVEIKGGSSRSSSSGGGGSGGGGEVQLVESGGGLVQPGGSLRLSCAASGFTFTSTGISWVRQAPGKGLEWVGRIYPTNGSTNYADSVKGRFTISADTSKNTAYLQMNSLRAEDTAVYYCARTYGIYDLYVDYTEYVMDYWGQGTLVTVSSGGSSRSSSSGGGGSGGGGDIQMTQSPSSLSASGGSGQITVTCRASGFYPWNITLSWRQDGVSLSHDTQQWGDVLPDGQGTYQTWVATRISQGEEQRFTCYMEHSGQHSTHPVPSGKGSHHHHHH
B2 was tested, and the “killing of FGFR3-expressing P815 target cells by NKL cells (calcein-release assay), fold over WT at 0.78 nM” value [1] was roughly 15 fold.

B3: α1-α2 variant 18 (designed binder)
chain: EPHSLRYNLTVLSWDGSVQPGFLTEVHLDGQPFLRCDRQKCRAKPQGQWAEDVLGNKTWDRETRDLTLWGKDLRMTLAHIKDQKEGLHSLQEIRVCEIHEDNSTRSSQHFYYDGELFLSQNLETLEWTMPQSSRAQTLAMNVRNFLKEDAMETDTHYHAMRADCLQELRRYLKSGVVLRRTVPPMVQVTRSEASGGSGDRVTITCRASQDVSTAVAWYQQKPGKAPKLLIYSASFLYSGVPSRFSGSGSGTDFTLTISSLQPEDFATYYCQQSYTTPPTFGQGTKVEIKGGSSRSSSSGGGGSGGGGEVQLVESGGGLVQPGGSLRLSCAASGFTFTSTGISWVRQAPGKGLEWVGRIYPTNGSTNYADSVKGRFTISADTSKNTAYLQMNSLRAEDTAVYYCARTYGIYDLYVDYTEYVMDYWGQGTLVTVSSGGSSRSSSSGGGGSGGGGDIQMTQSPSSLSASGGSGQITVTCRASGFYPWNITLSWRQDGVSLSHDTQQWGDVLPDGQGTYQTWVATRISQGEEQRFTCYMEHSGQHSTHPVPSGKGSHHHHHH
With B3 the “killing of FGFR3-expressing P815 target cells by NKL cells (calcein-release assay), fold over WT at 0.78 nM” value [1] was roughly 15 fold.

B4: α1-α2 variant 20 (designed binder)
chain: EPHSLRYNLTVLSWDGSVQSGFLTEVHLDGQPFLRCDRQKCRAKPQGQWAEDVLGNKTWDRETRDLTAWGKDLRMTLAHIKDQKEGLHSLQEIRVCEIHEDNSTRSSQHFYYDGELFLSQNLETLEWTMPQSSRAQTLAMNVRNFLKEDAMQTDTHYRAMHADCLFELRRYLKSGVVLRRTVPPMVQVTRSEASGGSGDRVTITCRASQDVSTAVAWYQQKPGKAPKLLIYSASFLYSGVPSRFSGSGSGTDFTLTISSLQPEDFATYYCQQSYTTPPTFGQGTKVEIKGGSSRSSSSGGGGSGGGGEVQLVESGGGLVQPGGSLRLSCAASGFTFTSTGISWVRQAPGKGLEWVGRIYPTNGSTNYADSVKGRFTISADTSKNTAYLQMNSLRAEDTAVYYCARTYGIYDLYVDYTEYVMDYWGQGTLVTVSSGGSSRSSSSGGGGSGGGGDIQMTQSPSSLSASGGSGQITVTCRASGFYPWNITLSWRQDGVSLSHDTQQWGDVLPDGQGTYQTWVATRISQGEEQRFTCYMEHSGQHSTHPVPSGKGSHHHHHH
notes: Expressed in HEK293 (Expi293)
For B4, the Kd [2] was 0.083 nM, the koff [3] was 3e-05 s⁻¹ and the kon [3] was 360000 M⁻¹ s⁻¹.

B5: α1-α2 variant 25 (designed binder)
chain: EPHSLRYNLTVLSWDGSVQSGFLTEVHLDGQPFLRCDRQKCRAKPQGQWAEDVLGNKTWDRETRDLTGWGKDLRMTLAHIKDQKEGLHSLQEIRVCEIHEDNSTRSSQHFYYDGELFLSQNLETLEWTMPQSSRAQTLAMNVRNFLKEDAMETDTHYHAMRADCLSELRRYLKSGVVLRRTVPPMVQVTRSEASGGSGDRVTITCRASQDVSTAVAWYQQKPGKAPKLLIYSASFLYSGVPSRFSGSGSGTDFTLTISSLQPEDFATYYCQQSYTTPPTFGQGTKVEIKGGSSRSSSSGGGGSGGGGEVQLVESGGGLVQPGGSLRLSCAASGFTFTSTGISWVRQAPGKGLEWVGRIYPTNGSTNYADSVKGRFTISADTSKNTAYLQMNSLRAEDTAVYYCARTYGIYDLYVDYTEYVMDYWGQGTLVTVSSGGSSRSSSSGGGGSGGGGDIQMTQSPSSLSASGGSGQITVTCRASGFYPWNITLSWRQDGVSLSHDTQQWGDVLPDGQGTYQTWVATRISQGEEQRFTCYMEHSGQHSTHPVPSGKGSHHHHHH
notes: Expressed in HEK293 (Expi293)
In the case of B5, the “EC50 for cell killing, fold improvement over variant 16” value [1] is reported as roughly 5 fold, the “killing of FGFR3-expressing P815 target cells by NKL cells (calcein-release assay), fold over variant 16 at 0.2 nM” value [1] is reported as roughly 3 fold and the Kd [2] is reported as 0.062 nM. For the same binder, the “fold enhancement in equilibrium binding affinity against variant 16” value [4] was 8 fold, the koff [3] was 2.9e-05 s⁻¹ and the kon [3] was 470000 M⁻¹ s⁻¹.

B6: α1-α2 variant 48 (designed binder)
chain: EPHSLRYNLTVLSWDGSVQSGFLTEVHLDGQPFLRCDRQKCRAKPQGQWAEDVLGNKTWDRETRDLTGWGKDLRMTLAHIKDQKEGLHSLQEIRVCEIHEDNSTRSSQHFYYDGELFLSQNLETLEWTMPQSSRAQTLAMNVRNFLKEDAMATDTHYIAMRADCLAELRRYLKSGVVLRRTVPPMVQVTRSEASGGSGDRVTITCRASQDVSTAVAWYQQKPGKAPKLLIYSASFLYSGVPSRFSGSGSGTDFTLTISSLQPEDFATYYCQQSYTTPPTFGQGTKVEIKGGSSRSSSSGGGGSGGGGEVQLVESGGGLVQPGGSLRLSCAASGFTFTSTGISWVRQAPGKGLEWVGRIYPTNGSTNYADSVKGRFTISADTSKNTAYLQMNSLRAEDTAVYYCARTYGIYDLYVDYTEYVMDYWGQGTLVTVSSGGSSRSSSSGGGGSGGGGDIQMTQSPSSLSASGGSGQITVTCRASGFYPWNITLSWRQDGVSLSHDTQQWGDVLPDGQGTYQTWVATRISQGEEQRFTCYMEHSGQHSTHPVPSGKGSHHHHHH
notes: Expressed in HEK293 (Expi293)
B6 was tested, and the Kd [2] was 15 nM, the “fold reduction in NKG2D binding affinity” value [5] was 250 fold and the koff [3] was 0.003 s⁻¹. For the same binder, the kon [3] was 200000 M⁻¹ s⁻¹.

B7: R80L (designed binder)
α1-α2 domain displayed on M13 phage (pIII fusion): AAEPHSLSYDITVIPKFRPGPRWCAVQGQVDEKTFLHYDCGNKTVTPVSPLGKKLNVTTAWKAQNPVLREVVDILTEQLLDIQLENYTPKEPLTLQARMSCEQKAEGHSSGSWQFSFDGQIFLLFDSEKRMWTTVHPGARKMKEKWENDKVVAMSFHYFSMGDCIGWLEDFLMGMDSTLEPSAGAPPMV
In the case of B7, the “EC50 (read off the curve)” value [6] is reported as ~0.01 OD268 (phage).

B8: V151D (designed binder)
α1-α2 domain displayed on M13 phage (pIII fusion): AAEPHSLCYDITVIPKFRPGPRWCAVQGQVDEKTFLHYDCGNKTVTPVSPLGKKLNVTTAWKAQNPVLREVVDILTEQLRDIQLENYTPKEPLTLQARMSCEQKAEGHSSGSWQFSFDGQIFLLFDSEKRMWTTVHPGARKMKEKWENDKDVAMSFHYFSMGDCIGWLEDFLMGMDSTLEPSAGAPPMV
With B8 the “EC50 (read off the curve)” value [6] was ~0.01 OD268 (phage).

B9: V152L (designed binder)
α1-α2 domain displayed on M13 phage (pIII fusion): AAEPHSLSYDITVIPKFRPGPRWCAVQGQVDEKTFLHYDCGNKTVTPVSPLGKKLNVTTAWKAQNPVLREVVDILTEQLRDIQLENYTPKEPLTLQARMSCEQKAEGHSSGSWQFSFDGQIFLLFDSEKRMWTTVHPGARKMKEKWENDKVLAMSFHYFSMGDCIGWLEDFLMGMDSTLEPSAGAPPMV
In the case of B9, the “EC50 (read off the curve)” value [6] is reported as ~0.01 OD268 (phage).

B10: K165S (designed binder)
α1-α2 domain displayed on M13 phage (pIII fusion): AAEPHSLWYNFTIIHLPRHGQQWCEVQSQVDQKNFLSYDCGSDKVLSMGHLEEQLYATDAWGKQLEMLREVGQRLRLELADTELEDFTPSGPLTLQVRMSCESEADGYIRGSWQFSFDGRKFLLFDSNNRKWTVVHAGARRMKEKWEKDSGLTTFFKMVSMRDCSSWLRDFLMHRKKRLEPTAPPMV
In the case of B10, the “EC50 (read off the curve)” value [7] is reported as ~0.002 OD268 (phage).

B11: K165P (designed binder)
α1-α2 domain displayed on M13 phage (pIII fusion): AAEPHSLWYNFTIIHLPRHGQQWCEVQSQVDQKNFLSYDCGSDKVLSMGHLEEQLYATDAWGKQLEMLREVGQRLRLELADTELEDFTPSGPLTLQVRMSCESEADGYIRGSWQFSFDGRKFLLFDSNNRKWTVVHAGARRMKEKWEKDSGLTTFFKMVSMRDCPSWLRDFLMHRKKRLEPTAPPMV
For B11, the “EC50 (read off the curve)” value [7] was ~0.004 OD268 (phage).

B12: R162G (designed binder)
α1-α2 domain displayed on M13 phage (pIII fusion): AAEPHSLWYNFTIIHLPRHGQQWCEVQSQVDQKNFLSYDCGSDKVLSMGHLEEQLYATDAWGKQLEMLREVGQRLRLELADTELEDFTPSGPLTLQVRMSCECEADGYIRGSWQFSFDGRKFLLFDSNNRKWTVVHAGARRMKEKWEKDSGLTTFFKMVSMGDCKSWLRDFLMHRKKRLEPTAPPMV
For B12, the “EC50 (read off the curve)” value [7] was ~0.005 OD268 (phage).
